Literature values in paper PMC5010500 (Journal of molecular biology, 2016).

Molecular target: Keap1 Kelch domain (Homo sapiens) (UniProt Q14145)
Assay: ITC
Conditions: cited from earlier work

Sequence of Keap1 Kelch domain (Homo sapiens) (Q14145 321-609): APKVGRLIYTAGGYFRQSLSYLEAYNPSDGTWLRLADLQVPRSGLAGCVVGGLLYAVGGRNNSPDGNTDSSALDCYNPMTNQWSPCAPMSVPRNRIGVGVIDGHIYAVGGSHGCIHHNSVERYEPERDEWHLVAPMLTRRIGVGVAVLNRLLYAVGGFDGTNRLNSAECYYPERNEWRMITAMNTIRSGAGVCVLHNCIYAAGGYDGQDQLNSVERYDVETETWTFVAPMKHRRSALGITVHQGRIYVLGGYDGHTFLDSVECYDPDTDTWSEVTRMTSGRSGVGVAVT
Sequence of mVP24 (P35256 whole entry): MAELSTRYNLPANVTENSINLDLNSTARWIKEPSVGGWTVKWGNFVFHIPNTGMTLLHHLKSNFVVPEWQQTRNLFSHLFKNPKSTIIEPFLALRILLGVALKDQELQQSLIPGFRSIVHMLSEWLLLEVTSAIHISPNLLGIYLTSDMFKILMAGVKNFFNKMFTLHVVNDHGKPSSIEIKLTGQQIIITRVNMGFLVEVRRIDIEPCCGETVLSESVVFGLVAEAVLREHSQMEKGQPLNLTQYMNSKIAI

For mVP24 (from UniProt P35256), the Kd is listed as 160 nM.
